Assay results published in the supplement of paper PMC12042874.
± gives the uncertainty stated by the source.

What was measured:
[1] = amyloid nucleation score (Sup35N fusion, yeast selection) (log enrichment); library NNK2; higher = more nucleation; inactive = no reads after selection
Outline: (§1)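 The nucleation score is the log enrichment of output over input reads, calculated with DiMSum and centred on the mode score of non-aggregating sequences. Sequences with under 100 input reads were excluded. Reads came from Illumina sequencing of plasmid inserts from psi-negative yeast expressing Sup35N fused to peptides of 20 random codons, induced 24 hours with 100 μM copper sulfate and grown 7 days at 30°C without adenine and uracil.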

[2] = amyloid nucleation score (Sup35N fusion, yeast selection) (log enrichment); library NNK3; higher = more nucleation; inactive = no reads after selection
Outline: as §1

Substance	amyloid nucleation score [1]	amyloid nucleation score [2]
AADKAICPVGGNTGHRSLGS	0.691 ± 0.35	
AADRFVAMKICVLCHLKQSL	1.88 ± 0.25	
YDKLSYKLPLF		inactive
YDLRCCTAVLFDLVESRATL		inactive
YDSKDF		inactive
YDSLFCLSSHLGWCNRALPE		0.977 ± 0.13
YDVSRDATDCRVYCCPFSRS		1.23 ± 0.1
YDWKNL		inactive
YELPDWSRYKQFVLLG		inactive
YEMIKFSKY		inactive
YERSRMSVWRNT		inactive
YFAWNRKVNYTRS		inactive
YFCLQNFRVFLGRYMIHNYL		inactive
YFFKTQISSDGTLSTYECME		inactive
YFGDPVLNASLVIVLHLYWL		1.21 ± 0.078
YFGYRLLAAERSSERVICFK		-0.352 ± 0.75
YFIALCINSDKPPVHGVAVV		inactive
YFKSSFQKSLIDEVALKGWL		0.224 ± 0.54
YFLYMCALTHRWFWFKFFER		inactive
YFRSK		inactive
YFSISLLTSK		inactive
YFTFCDCLGQLMTRGRGCSV		inactive
YFVPWGFAKDRRKTHDLPAE		inactive

Substance	amyloid nucleation score [1]	amyloid nucleation score [2]
YGAFWGYSAGAVKLNENFSV		inactive
YGCWQRWSRQVGYFRGDKAC		inactive
YGDWIHATCVICSLSF		3.39 ± 0.05
YGFFKAARRMRIS		inactive
YGIYWSETFRNSLCKIVNIL		0.66 ± 0.24
YGMDIIWW		inactive
YGNFF		inactive
YGNGWTFWSFLWGSTNRQRT		inactive
YGNLFSYAVMSRDLVSWGPV		inactive
YGPQGVGLMGSLIAVISFIR		1.12 ± 0.16
YGRLPSWIKWFFLVVYIRVL		inactive
YGVESAYKCRNVYFLYWCML		0.511 ± 0.13
YGVYINEAVEVRGPHAYMTS		inactive
YHCSLQIFVLNSWMSSYKWS		1.86 ± 0.098
YHGVLRWSKSTFAAHYPVTA		inactive
YHLDIKNFHTLCWGPYFTSM		0.789 ± 0.25
YHRRLSTVLMGCMNRGLNYL		inactive
YIAGFQFCSIIFQRRTVQLL		inactive
YICVKYEVYNFTFYFVSGFW		inactive
YIFGNFRHTSGGYCVLSVLK		inactive
YIHIY		inactive
YINSATRFDKFM		inactive
YITMNVHSRDASVRWLDF		inactive

Substance	amyloid nucleation score [1]	amyloid nucleation score [2]
YIVST		inactive
YIWLKGNIRRSQWLLSLPFM		inactive
YIYEEASK		inactive
YIYICLVFMSRCTKLYIELG		inactive
YKFSVTTL		inactive
YKGDKFVRCSVW		inactive
YKRGFMKRYANAEASFMSYW		inactive
YKTYKYERLCIFVLSQRESI		inactive
YKWSLTTRRTVRHLRED		inactive
YLAPHMSATVVLDNEFGPES		inactive
YLDFVFGLRTRDNYLWVRPT		inactive
YLDSSSS		inactive
YLDVPTCDLSMPCYDINNNL		inactive
YLFTFVWQTTSLINVIVALI		inactive
YLIGLRCWCSL		inactive
YLKWTNVVKMGHSKSSTE		1.29 ± 0.1
YLLLARIEKRFGFFVISDPG		inactive
YLPFFEWRVQGRVFEVSMYY		inactive
YLPSSSEFR		inactive
YLSDVLSLWCSVQIWSGLYC		inactive
YLSVPVF		inactive
YLVFFA		inactive
YLVTWWMLSHKLTHMCFSGR		-0.024 ± 0.69

Substance	amyloid nucleation score [1]	amyloid nucleation score [2]
YMAAVQSTKRNFMHCNKVGS		inactive
YMHGVWRWVVYRIFLYGRQA		inactive
YMLLSVDILSYMPMTVVAEQ		inactive
YMLSGPRWFV		inactive
YMQQSR		inactive
YMTGNSSSWSTFGWDKRFGI		1.03 ± 0.09
YMYFKVDVDWRSPGMTARLL		inactive
YNCRTLNCNYQVYYFVFLSD		3.15 ± 0.062
YNDWQKEMCIITICVL		inactive
YNGYALRF		inactive
YNNVCSEAEWS		inactive
YNYLV		inactive
YPGMQEYVLGWNVWREK		inactive
YPKRMCDRHS		inactive
YQDLP		inactive
YQNGLARWTWKYRNVINVLS		inactive
YQWNIMLKIDCSIDVVVVSN		0.827 ± 0.27
YQYCSISKHVFEWYGTSWMG		inactive
YQYPVVDKRMYIFTTMFYFT		2.57 ± 0.082
YRFLMLITYYFCIV		2.11 ± 0.071
YRFYSNNPTRCS		inactive
YRGPVGIDSGVRS		inactive
YRGVDLYVGVKLIRTYRVVR		inactive

Substance	amyloid nucleation score [1]	amyloid nucleation score [2]
YRILRL		inactive
YRLCRGFNSFI		inactive
YRLVSLYFVLLFFGA		inactive
YRNNAFPSEMHPIGRLEYAV		0.456 ± 0.15
YRNVGHVCFDVEYPRVLFFA		inactive
YRPSIRLTGCLSSLYTLFYG		1.92 ± 0.062
YRSKNFMIQRWTRVVLRAWM		inactive
YRSNEFISD		inactive
YRVKPFKWKYARRRLVIRWV		inactive
YRWGISLIEMEQGGVVF		inactive
YRYRACSSNFYVTVFGQLHV		2.33 ± 0.063
YSCNKCVDEMRVRRGIERGV		inactive
YSCVEDSGCVCKNPLVISEF		inactive
YSESIFIV		inactive
YSGGKGSGRELRYTLLVRGT		inactive
YSGMGCFSAWSMW		inactive
YSNNILFAQEISQPYGHMFP		inactive
YSSSC		inactive
YSSSFIWMAYESIYFFLIFI		inactive
YSVCVNAWGLSTLSTLWCTY		inactive
YSVLLCVALRLVNNVA		inactive
YSVLLLLDSYGAWSGAGGE		inactive
YSVSEIRKSHLWITINMAVF		inactive

Substance	amyloid nucleation score [1]	amyloid nucleation score [2]
YSWDILSLLRGKETQACICY		inactive
YSWSMLL		0.077 ± 0.54
YTALHWLYFVSCKFDEKVQW		inactive
YTDWGYDLRNGAGNGYIT		inactive
YTILVCYSAGVAYYNKGLVR		inactive
YTLGHRTPMLIYDVAGRPNY		inactive
YTRNKQDIWGGNHGSRCQNG		inactive
YTVGCSYMVWVVFNFFYFSE		1 ± 0.14
YTVILRVRGSMSAMQSMKFS		inactive
YTVTASQTYFYSCRDGFAFS		inactive
YTWYCFCRC		2.44 ± 0.055
YVCGQSG		inactive
YVDIY		inactive
YVEKVYYCSVRLRYAFLDFD		inactive
YVELSTYCSRWLVLIVDYLE		inactive
YVFGKLSAFFFVRFNLQGLL		inactive
YVFKYVEEVSHFSLFLWTKS		inactive
YVFVRS		inactive
YVGFLSSCFF		1.19 ± 0.14
YVITQQSSFSVTLYSSINFC		0.625 ± 0.33
YVIVLNR		2.3 ± 0.069
YVIVYS		inactive
YVMHWSVAEVLRSLCVNHVR		inactive

Substance	amyloid nucleation score [1]	amyloid nucleation score [2]
YVNFFVKVSV		inactive
YVPIRSFVGEVLGSGDR		0.157 ± 0.59
YVQIGFILIFISNYLSCESA		1.8 ± 0.071
YVSSAILRNRVLCHCYFTML		inactive
YVTSNSVDRTIKCSAFILIC		inactive
YVWIDTMGL		inactive
YWFFIIIFNNIHSADGFIVS		inactive
YWPIHSSTAETDVTVRTRSY		1.01 ± 0.14
YWSNPYSYKFYEFMIHTALQ		inactive
YWVRNVLNS		inactive
YYGFYTNYFMCGV		2.77 ± 0.062
YYGLAVWSERNVRWMGEGEA		inactive
YYGVDHLLNWIPFACTARLG		inactive
YYIIWRFQGIVLKYGTALTF		inactive
YYLCLYLSPLLL		1.28 ± 0.11
YYMLWSKCCEYSAHRN		inactive
YYSWCRFTNDYSCCYRAFFA		inactive
YYTFSVHSYGEFMRCLFIQH		inactive
YYTGCHSSVSC		inactive
YYVVGQPAASQK		inactive
YYYAFEFPFSYHERSALYYC		inactive
